# Test results taken from IntAct's records for PubMed 25752541.
# B1: Ankyrin repeat family A protein 2 (Homo sapiens), Q9H9E1 (parent)
# chain: MDTSTNLDIGAQLIVEECPSTYSLTGMPDIKIEHPLDPNSEEGSAQGVAMGMKFILPNRFDMNVCSRFVKSLNEEDSKNIQDQVNSDLEVASVLFKAECNIHTSPSPGIQVRHVYTPSTTKHFSPIKQSTTLTNKHRGNEVSTTPLLANSLSVHQLAAQGEMLYLATRIEQENVINHTDEEGFTPLMWAAAHGQIAVVEFLLQNGADPQLLGKGRESALSLACSKGYTDIVKMLLDCGVDVNEYDWNGGTPLLYAVHGNHVKCVKMLLESGADPTIETDSGYNSMDLAVALGYRSVQQVIESHLLKLLQNIKE
# partner: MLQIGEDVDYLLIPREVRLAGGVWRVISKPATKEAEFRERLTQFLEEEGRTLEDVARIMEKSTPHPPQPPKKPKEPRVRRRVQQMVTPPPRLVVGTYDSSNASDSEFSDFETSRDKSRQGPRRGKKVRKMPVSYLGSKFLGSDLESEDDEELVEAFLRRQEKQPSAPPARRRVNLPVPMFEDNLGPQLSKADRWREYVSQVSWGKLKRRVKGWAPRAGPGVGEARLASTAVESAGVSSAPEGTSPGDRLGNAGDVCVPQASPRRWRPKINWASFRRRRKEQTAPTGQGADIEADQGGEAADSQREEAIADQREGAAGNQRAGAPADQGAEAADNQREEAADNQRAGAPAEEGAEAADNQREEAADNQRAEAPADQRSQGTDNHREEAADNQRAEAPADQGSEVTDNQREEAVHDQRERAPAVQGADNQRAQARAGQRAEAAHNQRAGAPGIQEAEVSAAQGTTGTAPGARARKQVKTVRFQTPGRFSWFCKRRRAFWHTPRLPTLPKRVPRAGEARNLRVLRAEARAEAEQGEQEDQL
# B2: Coiled-coil domain-containing protein 8 (Homo sapiens), Q9H0W5 (parent)
# chain: B1 partner
# partner: B1 chain
# Variants of: B1
# Details: with ccdc8_human CCDC8, Q9H0W5
row,Variant,effect of a mutation on the interaction
1,W188A,disrupting interaction strength
2,K31R,with no effect

# Variants of: B2
# Details: with anra2_human ANKRA2, Q9H9E1
row,Variant,effect of a mutation on the interaction
1,T504A,disrupting interaction strength
2,P503A,disrupting interaction strength
